6 molecules from US20240109973A1 (Memorial Sloan Kettering, published 2024) can be followed below.

Experiment [1] addresses T1, human CD40 on cells (human, UniProt P25942 21-277). Kind of experiment: cell-based or functional assay.
The target of experiment [2] is T2, recombinant human CD40 (residues 21-192) fused to a 6×His-tag at the carboxy-terminus (human, UniProt P25942 21-192).
T2 construct: range 21-192; also called Human CD40-His; soluble, monomeric human CD40-His
Kind of experiment: BLI, soluble monomeric human CD40-His. Here is the method:
Dissociation constants (KD), on-rates (kon) and off-rates (koff) for the 10F12 chimeric mAb were determined by BLI using soluble, monomeric human CD40-His (Table 1).

In another experiment the target is T3, human CD40-Fc (human, UniProt P25942 21-192).
T3 construct: range 21-192; also called dimeric CD40-Fc; not shown: human Fc fragment fused to the carboxy-terminus
Put plainly: BLI, Octet Red96e; avidity between bivalent IgG and dimeric CD40-Fc. How it is done:
(§1) Antibody TDI-Y-003 produced in stable CHO pools was tested in a series of binding and functional assays in vitro as well as an in vivo study in a disease-relevant animal model. Affinity to human CD40 was measured by BLI using an Octet Red96e. […] The slower off-rate seen for this interaction is likely a result of the avidity between the bivalent TDI-Y-003 IgG and the dimeric CD40-Fc.
(In general: Biolayer interferometry detects binding as a change in optical thickness at a sensor tip.)

The target in experiment [3] is T1, human CD40 on cells. Kind of experiment: cell-based or functional assay. The source holds these as a separate data set.
Experiment [4] addresses T2, recombinant human CD40 (residues …). Put plainly: BLI, Octet Red96e. How it is done:
as §1

For another experiment, the target named is T4, Cyno CD40-His (cynomolgus monkey, UniProt G7PG38 21-192).
T4 construct: also called monomeric cynomolgus monkey CD40; not shown: His tag
Put plainly: BLI, Octet Red96e. Here is the method: (§2) Affinity to cynomolgus monkey and mouse CD40 was measured by BLI using an Octet Red96e.

A further experiment deals with T5, Mouse CD40-His (mouse, UniProt P27512 24-192, limits assumed).
T5 construct: also called monomeric mouse CD40; not shown: His tag
T5 sequence (looked up): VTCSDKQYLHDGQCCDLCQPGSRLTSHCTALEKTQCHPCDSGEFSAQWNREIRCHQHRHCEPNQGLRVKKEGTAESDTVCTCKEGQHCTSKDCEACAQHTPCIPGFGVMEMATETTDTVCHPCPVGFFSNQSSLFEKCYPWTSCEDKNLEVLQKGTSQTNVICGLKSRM
Kind of experiment: BLI, Octet Red96e. How it is done: as §2

For experiment [5], the target named is T1, human CD40 on cells. Put plainly: flow cytometry, HEK293 cells overexpressing CD40. Here is the method:
(§3) To assess the binding of TDI-Y-003 to cell surface-bound CD40, HEK293 overexpressing CD40 as well as Raji cells (B-lymphocytes) and primary human dendritic cells, which express endogenous CD40, were used. TDI-Y-003 bound HEK293-CD40 and Raji cells with EC₅₀ values in the sub-nanomolar range at 0.44 and 0.77 nM, respectively (Table 5).
A general note: A flow cytometer gives signals particle by particle.

Experiment [6] concerns the target T1, human CD40 on cells. Put plainly: flow cytometry competition on HEK293 cells stably expressing CD40; competitor HA-tagged CD40 ligand detected with PE anti-HA. How it is done:
FIG. 4. Competitive binding of TDI-Y-003 with CD40 ligand to CD40 stably expressed on HEK293 cells. HEK293 cells stably expressing CD40 were co-incubated with either TDI-Y-003 or isotype control antibody and HA-tagged CD40 ligand. CD40 ligand binding was assessed by flow cytometry with a PE labeled anti-HA antibody. Results are normalized to secondary antibody only controls (MFI ratio).
Competitive binding of TDI-Y-003 with CD40L for binding to CD40 was assessed using HEK293 cells stably expressing CD40. Cells were co-incubated with HA tagged CD40 ligand and TDI-Y-003 or isotype control at the indicated concentrations and analyzed for CD40 ligand binding by flow cytometry (FIG. 4).

For experiment [7], the target named is T1, human CD40 on cells. Put plainly: cell-based or functional assay. The source holds these as a separate data set.
Experiment [8] deals with T1, human CD40 on cells. Put plainly: flow cytometry, primary human dendritic cells (endogenous CD40). Here is the method: as §3
In experiment [9] the target is T1, human CD40 on cells. Put plainly: flow cytometry, Raji cells (endogenous CD40). Here is the method:
as §3

T2 sequence (P25942 other isoform, or with tags, fused parts or gaps limits assumed): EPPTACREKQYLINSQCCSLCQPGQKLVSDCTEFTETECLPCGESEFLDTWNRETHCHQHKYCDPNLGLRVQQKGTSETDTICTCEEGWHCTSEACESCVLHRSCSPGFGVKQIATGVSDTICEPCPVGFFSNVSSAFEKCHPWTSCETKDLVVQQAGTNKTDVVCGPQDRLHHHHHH
T3 sequence (P25942 21-192): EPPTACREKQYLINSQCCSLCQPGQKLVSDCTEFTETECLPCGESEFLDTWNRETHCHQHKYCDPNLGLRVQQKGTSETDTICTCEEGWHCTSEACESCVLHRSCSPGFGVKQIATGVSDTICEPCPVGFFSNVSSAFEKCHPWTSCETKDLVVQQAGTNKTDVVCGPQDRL
T1 sequence (P25942 21-277): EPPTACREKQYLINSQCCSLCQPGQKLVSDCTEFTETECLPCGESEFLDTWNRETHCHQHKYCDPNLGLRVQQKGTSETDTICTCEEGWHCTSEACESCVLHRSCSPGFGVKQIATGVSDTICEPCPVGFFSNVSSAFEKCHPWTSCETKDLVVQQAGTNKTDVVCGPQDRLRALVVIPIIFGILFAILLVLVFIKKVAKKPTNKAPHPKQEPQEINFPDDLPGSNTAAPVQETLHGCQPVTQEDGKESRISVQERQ

B1: 10F12 chimeric mAb, human IgG1 (antibody, V domains shown)
VH: QVQLKQSGPGLVQPSQSLSITCTVSGFSLTTYGLHWVRQSPGKGLEWLGVIWRGGNTDYNAAFMSRLSITKDNSKSQVFFKMNSLQADDTAIYYCAKNSYYGNGGHAMDYWGQGTSVTVSS
VL: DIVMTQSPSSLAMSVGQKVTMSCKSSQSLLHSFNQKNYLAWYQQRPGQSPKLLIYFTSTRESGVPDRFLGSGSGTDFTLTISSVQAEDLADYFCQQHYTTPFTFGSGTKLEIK
notes: Mouse variable regions fused to human constant regions of the IgG1 subclass; Expressed in HEK293 cells; also called 10-F12 (Human IgG1)
A word on the koff: it is a measure of how fast the partners let go of each other. In general, kon refers to the rate constant with which the complex forms. With B1, in the experiment with human CD40 on cells [1], the “EC50 for agonist activity (HEK293-CD40 NF-κB-Luciferase reporter system)” value (from here on “EC50 for agonist activity”) worked out at 0.333 nM and the “Max Stim [% CD40L] (HEK293-CD40 NF-κB-Luciferase reporter system)” value (“Max Stim [% CD40L]” below) turned out to be 63.4 % CD40L. Besides, in [2], the Kd came to 27.1 nM, the koff was determined as 0.0071 s⁻¹ and the kon came out at 262000 M⁻¹ s⁻¹.

B2: 10F12 chimeric mAb, human IgG2 (antibody, V domains shown)
VH: QVQLKQSGPGLVQPSQSLSITCTVSGFSLTTYGLHWVRQSPGKGLEWLGVIWRGGNTDYNAAFMSRLSITKDNSKSQVFFKMNSLQADDTAIYYCAKNSYYGNGGHAMDYWGQGTSVTVSS
VL: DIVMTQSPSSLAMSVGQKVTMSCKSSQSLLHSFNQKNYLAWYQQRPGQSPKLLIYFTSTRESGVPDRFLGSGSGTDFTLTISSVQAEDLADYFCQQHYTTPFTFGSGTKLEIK
notes: Mouse variable regions fused to human constant regions of the IgG2 subclass; Expressed in HEK293 cells; also called 10-F12 (Human IgG2); 10-F12 hIgG2
With B2, in the experiment with human CD40 on cells [1], the “EC50 for agonist activity” value was found to be 0.01 nM and the “Max Stim [% CD40L]” value was determined as 96.5 % CD40L. Moreover, in [2], the Kd turned out to be 26.5 nM, the off-rate constant (koff) worked out at 0.00911 s⁻¹ and the kon was 344000 M⁻¹ s⁻¹.

B3: TDI-Y-003 (antibody, human IgG2, kappa, V domains shown)
VH: QVQLQESGPGLVKPSETLSLTCTVSGFSLTTYGLHWIRQPPGKGLEWIGVIWRGGNTDYNPSLKSRVTISKDTSKNQVSLKLSSVTAADTAVYYCAKNSYYGQGGHAMDYWGQGTLVTVSS
VL: DIVMTQSPDSLAVSLGERATINCKSSQSLLHSFNQKNYLAWYQQKPGQPPKLLIYFTSTRESGVPDRFSGSGSGTDFTLTISSLQAEDVAVYYCQQHYTTPFTFGQGTKLEIKR
notes: also called Hu10F12 (N103Q); hu10F12 (N103Q)
What is called EC50 is the concentration at which the effect is half-maximal. In general, IC50 refers to the midpoint of a concentration-inhibition curve. A lower IC50 goes with inhibition by little substance. As for B3, in the experiment with human CD40-Fc, the Kd was determined as 1.2 nM, the koff came to 0.0013 s⁻¹ and the kon is 1e+06 M⁻¹ s⁻¹. In the experiment with human CD40 on cells [3], the “EC50 in DC activation assay, marker CD80” value amounted to 2 nM; the “EC50 in DC activation assay, marker CD86” value came to 5.5 nM; the “EC50 in DC activation assay, marker HLA-ABC” value was found to be 2.5 nM; the “EC50 in DC activation assay, marker HLA-DR” value is 1.7 nM. Besides, in experiment [4], the Kd was 40 nM, the koff amounted to 0.048 s⁻¹ and the kon was found to be 1.2e+06 M⁻¹ s⁻¹. In the experiment with Cyno CD40-His, this molecule gave a Kd of 48 nM, a koff of 0.0471 s⁻¹ and an on-rate constant (kon) of 977000 M⁻¹ s⁻¹. The binding result in the experiment with Mouse CD40-His is listed as “no binding (tested: 1.7 µM)”. Also, in the experiment with human CD40 on cells [5], the EC50 was found to be 0.44 nM. In the experiment with human CD40 on cells [6], the IC50 stood at 1.07 nM. In the experiment with human CD40 on cells [7], the “EC50 in agonist assay (HEK293 NF-kB-luciferase reporter line stably expressing CD40)” value (“EC50 in agonist assay” below) worked out at 0.64 nM. In the experiment with human CD40 on cells [8], this molecule had an EC50 of 3.85 nM. This molecule yielded an EC50 in the experiment with human CD40 on cells [9] of 0.77 nM.

B4: TDI-Y-003 Fab fragment generated by papain cleavage (Fab, V domains shown)
VH: QVQLQESGPGLVKPSETLSLTCTVSGFSLTTYGLHWIRQPPGKGLEWIGVIWRGGNTDYNPSLKSRVTISKDTSKNQVSLKLSSVTAADTAVYYCAKNSYYGQGGHAMDYWGQGTLVTVSS
VL: DIVMTQSPDSLAVSLGERATINCKSSQSLLHSFNQKNYLAWYQQKPGQPPKLLIYFTSTRESGVPDRFSGSGSGTDFTLTISSLQAEDVAVYYCQQHYTTPFTFGQGTKLEIKR
Regarding B4, the “EC50 in agonist assay” value in the experiment with human CD40 on cells [7] is 112 nM.

B5: human CD40L (ligand, UniProt P29965 113-261, looked up)
chain: MQKGDQNPQIAAHVISEASSKTTSVLQWAEKGYYTMSNNLVTLENGKQLTVKRQGLYYIYAQVTFCSNREASSQAPFIASLCLKSPGRFERILLRAANTHSSAKPCGQQSIHLGGVFELQPGASVFVNVTDPSQVSHGTGFTSFGLLKL
Take B5: in the experiment with human CD40 on cells [1], the “EC50 for agonist activity” value came to 3.58 nM and the “Max Stim [% CD40L]” value was 100 % CD40L. For the same molecule, the “EC50 in agonist assay” value in the experiment with human CD40 on cells [7] was found to be 9.62 nM.

B6: TDI-Y-003 F(ab′)2 fragment generated by pepsin cleavage (other)
heavy: QVQLQESGPGLVKPSETLSLTCTVSGFSLTTYGLHWIRQPPGKGLEWIGVIWRGGNTDYNPSLKSRVTISKDTSKNQVSLKLSSVTAADTAVYYCAKNSYYGQGGHAMDYWGQGTLVTVSSASTKGPSVFPLAPCSRSTSESTAALGCLVKDYFPEPVTVSWNSGALTSGVHTFPAVLQSSGLYSLSSVVTVPSSNFGTQTYTCNVDHKPSNTKVDKTVERKCCVECPPCPAPPVAGPSVFLFPPKPKDTLMISRTPEVTCVVVDVSHEDPEVQFNWYVDGVEVHNAKTKPREEQFNSTFRVVSVLTVVHQDWLNGKEYKCKVSNKGLPAPIEKTISKTKGQPREPQVYTLPPSREEMTKNQVSLTCLVKGFYPSDIAVEWESNGQPENNYKTTPPMLDSDGSFFLYSKLTVDKSRWQQGNVFSCSVMHEALHNHYTQKSLSLSPG
light: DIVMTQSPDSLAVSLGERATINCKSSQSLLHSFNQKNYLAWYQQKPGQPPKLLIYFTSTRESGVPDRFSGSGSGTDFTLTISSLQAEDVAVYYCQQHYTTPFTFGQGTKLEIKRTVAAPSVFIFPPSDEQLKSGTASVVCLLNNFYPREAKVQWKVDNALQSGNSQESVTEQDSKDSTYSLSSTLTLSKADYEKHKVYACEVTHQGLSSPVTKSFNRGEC
With B6, the “EC50 in agonist assay” value with human CD40 on cells [7] was determined as 2.14 nM.
